According to article PMC9883682, “Fatty acids negatively regulate platelet function through formation of noncanonical 15‐lipoxygenase‐derived eicosanoids” (Pharmacology Research & Perspectives, 2023):

What was measured:
Assay type in all cases: biochemical
[1] = molecular target: T1, 12‐LOX (Homo sapiens, UniProt P18054); experiment: inhibition of purified recombinant 12-LOX with […] AA as substrate
T1 construct: gene ALOX12
T1 sequence (P18054 1-663): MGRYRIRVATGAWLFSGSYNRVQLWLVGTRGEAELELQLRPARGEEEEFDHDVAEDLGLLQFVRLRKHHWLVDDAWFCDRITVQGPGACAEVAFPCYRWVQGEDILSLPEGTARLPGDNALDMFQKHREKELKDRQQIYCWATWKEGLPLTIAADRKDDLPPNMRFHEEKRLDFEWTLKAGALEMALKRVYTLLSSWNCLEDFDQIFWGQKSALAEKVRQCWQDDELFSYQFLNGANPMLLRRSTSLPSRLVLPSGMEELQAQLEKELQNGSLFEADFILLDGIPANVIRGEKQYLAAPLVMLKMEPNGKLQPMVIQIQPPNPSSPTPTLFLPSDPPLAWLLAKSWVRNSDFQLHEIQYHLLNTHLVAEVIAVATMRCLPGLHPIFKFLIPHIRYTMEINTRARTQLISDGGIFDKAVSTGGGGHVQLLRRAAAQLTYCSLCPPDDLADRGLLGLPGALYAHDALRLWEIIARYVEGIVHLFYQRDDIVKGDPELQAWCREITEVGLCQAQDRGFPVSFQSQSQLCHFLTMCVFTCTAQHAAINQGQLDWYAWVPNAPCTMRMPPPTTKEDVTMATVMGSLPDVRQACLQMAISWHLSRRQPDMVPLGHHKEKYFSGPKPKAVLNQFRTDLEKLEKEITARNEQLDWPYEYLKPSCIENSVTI

[2] = substrate: CC/C=C\C/C=C\C/C=C\C/C=C\C/C=C\CCCC(=O)O; experiment: steady-state UV kinetics with purified human 12-LOX (kM)
[3] = substrate: CCCCC/C=C\C/C=C\C/C=C\CCCCCCC(=O)O; experiment: as above
[4] = substrate: CCCCC/C=C\C/C=C\C/C=C\C/C=C\CCCC(=O)O; experiment: as above
[5] = substrate: CC/C=C\C[C@@H](/C=C/C=C\C/C=C\C/C=C\CCCC(=O)O)OO; experiment: steady-state UV kinetics with purified human 12-LOX (kM); LC-MS product profile; conditions: also described as a […]‐LOX allosteric regulator that affects secondary product formation
[6] = substrate: CCCCC[C@@H](/C=C/C=C\C/C=C\CCCCCCC(=O)O)OO; experiment: as above
[7] = substrate: CCCCC[C@@H](/C=C/C=C\C/C=C\C/C=C\CCCC(=O)O)OO; experiment: as above

Molecule: CC/C=C\C[C@H](O)/C=C/C=C\C/C=C\C/C=C\CCCC(=O)O [15‐HEPE]
- IC50 [1]: 142 ± 11 µM

Molecule: CCCCC[C@H](O)/C=C/C=C\C/C=C\C/C=C\CCCC(=O)O [15‐HETE]
- IC50 [1]: 46 ± 19 µM

Molecule: CCCCC[C@H](O)/C=C/C=C\C/C=C\CCCCCCC(=O)O [15‐HETrE]
- IC50 [1]: 105 ± 55 µM

B1: 12‐LOX (Homo sapiens) (protein)
chain: T1 sequence (P18054 1-663)
- Km [2]: 1 ± 0.2 µM
- kcat [2]: 9 ± 0.5 s⁻¹
- kcat/Km [2]: 8.7e+06 ± 1.2e+06 M⁻¹ s⁻¹
- Km [3]: 2.5 ± 0.2 µM
- kcat [3]: 12 ± 0.3 s⁻¹
- kcat/Km [3]: 4.9e+06 ± 300000 M⁻¹ s⁻¹
- Km [4]: 0.49 ± 0.07 µM
- kcat [4]: 11 ± 0.2 s⁻¹
- kcat/Km [4]: 2.2e+07 ± 3e+06 M⁻¹ s⁻¹
- Km [5]: 9.2 ± 1 µM
- kcat [5]: 0.93 ± 0.06 s⁻¹
- kcat/Km [5]: 100000 ± 8000 M⁻¹ s⁻¹
- Km [6]: 11 ± 1 µM
- kcat [6]: 0.96 ± 0.05 s⁻¹
- kcat/Km [6]: 86000 ± 4000 M⁻¹ s⁻¹
- Km [7]: 5.8 ± 0.4 µM
- kcat [7]: 1.5 ± 0.05 s⁻¹
- kcat/Km [7]: 260000 ± 1000 M⁻¹ s⁻¹
